Test results published in PMC11282193, “Mst1-mediated phosphorylation of FoxO1 and C/EBP-β stimulates cell-protective mechanisms in cardiomyocytes”.
One block for each molecule: values may come before it.

Tests used:
FoxO1 = FoxO1 (UniProt G3V7R4); assay: C/EBP-β IP, FoxO1 immunoblot; conditions: reference: C/EBP-β-WT; sites T299
C/EBP-β = C/EBP-β (UniProt P21272); assay: co-immunoprecipitation from cardiomyocytes; conditions: reference: FoxO1(S209A); sites S215,S218,T228,S232,S243
FoxO1-WT = FoxO1-WT (mouse, UniProt Q9R1E0 1-652); assay: pull-down; without Mst1; EMSA: 20 mM Tris-HCl pH 8.0, 40 mM KCl, 5% glycerol, 0.4 mM DTT, 0.2 mM EDTA, 2 mM MgCl2, 1 mg/ml BSA, 20 ng poly(dI-dC), on ice 15 min, 50 ng protein; pull-down (1x buffer): 10 mM HEPES pH 8, 50 mM KCl, 2.5 mM MgCl2, 1 mM EDTA, 1 mM DTT, 0.1% IGEPAL, 4 C 2 h; conditions: protein: recombinant; tags: GST removed by PreScission (general method); label: 5' biotin on sense strand; blunt
FoxO1-WT, sequence (Q9R1E0 whole entry): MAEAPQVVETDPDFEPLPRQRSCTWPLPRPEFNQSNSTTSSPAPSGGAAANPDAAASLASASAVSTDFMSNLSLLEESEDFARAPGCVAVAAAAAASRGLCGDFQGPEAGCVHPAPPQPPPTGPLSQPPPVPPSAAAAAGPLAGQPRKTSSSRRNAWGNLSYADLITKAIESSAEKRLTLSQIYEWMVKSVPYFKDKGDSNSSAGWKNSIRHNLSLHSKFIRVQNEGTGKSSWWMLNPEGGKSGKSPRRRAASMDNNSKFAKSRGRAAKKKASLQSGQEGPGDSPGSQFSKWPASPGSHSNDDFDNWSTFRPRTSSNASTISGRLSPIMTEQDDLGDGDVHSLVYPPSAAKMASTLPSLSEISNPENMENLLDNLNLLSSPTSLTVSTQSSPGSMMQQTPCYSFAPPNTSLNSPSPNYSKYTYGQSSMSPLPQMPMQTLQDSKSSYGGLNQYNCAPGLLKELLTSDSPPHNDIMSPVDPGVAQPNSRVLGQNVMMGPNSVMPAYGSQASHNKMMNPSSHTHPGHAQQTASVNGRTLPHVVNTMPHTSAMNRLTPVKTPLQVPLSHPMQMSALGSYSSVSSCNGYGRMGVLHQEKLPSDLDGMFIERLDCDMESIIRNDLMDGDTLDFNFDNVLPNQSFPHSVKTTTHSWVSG

B1: Mt-3xDBE (Biotin-FHRE-mutant) (dsDNA)
DNA 1: ACTTACCCACGAGTTACCCACGAGTTACCCACCA
DNA 2: TGGTGGGTAACTCGTGGGTAACTCGTGGGTAAGT
- binding result (FoxO1-WT): no binding

B2: WT-3xDBE (Biotin-FHRE-wild type) (dsDNA)
DNA 1: CCTTGTTTACGGGTTGTTTACGGGTTGTTTACCC
DNA 2: GGGTAAACAACCCGTAAACAACCCGTAAACAAGG
- binding result (FoxO1-WT): binds

Second part, the molecule after the results:

- binding against the reference (FoxO1): weaker
Molecule: C/EBP-β (from UniProt P17676) C/EBP-β-PR (T299A)

- binding against the reference (C/EBP-β): lost
Molecule: FoxO1 (from UniProt Q9R1E0) FoxO1-PR (six sites to Ala)
